Where two headings read alike, the source gives them in different places.
Columns and labels:
[1] = target: T1, AE.A244 V1/V2 Tags N156QN160Q (HIV-1); test: ELISA
T1 chain: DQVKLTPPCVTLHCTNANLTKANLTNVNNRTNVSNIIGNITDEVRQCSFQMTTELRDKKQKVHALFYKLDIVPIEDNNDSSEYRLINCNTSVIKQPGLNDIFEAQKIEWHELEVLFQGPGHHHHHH

[2] = target: 92TH023 gp120 (HIV-1)
[3] = target: C.CAP206 gp140CF.12 (HIV-1); test: ELISA
[4] = target: T2, AE.A244 gD+ gp120 (HIV-1); test: ELISA
T2 construct: domain: gp120; also called AE.A244 gp120gD+

[5] = target: T2, AE.A244 gD+ gp120; test: ELISA; remark: listed apart in the source
[6] = target: T3, AE.427299 gp120D11 (HIV-1); test: ELISA
T3 construct: also called AE.427299 gp120 WT

[7] = target: T4, AE.A244 gp120 D11/K169V/V172E/H173Y (HIV-1); test: ELISA
T4 construct: also called A244 gp120 Mut3

[8] = target: T5, AE.A244 gp120D11/K169V (HIV-1); test: ELISA
T5 construct: also called A244 gp120 K169V; AE.A244 gp120/K169V

[9] = target: T6, AE.A244 gp120 delta 11 (HIV-1); test: ELISA
T6 construct: also called E.A244gp120Δ11; AE.A244 Δ11 gp120

[10] = target: T7, AE.427299 gp120D11/Q169K (HIV-1); test: ELISA
T7 construct: also called AE.427299 gp120 Q169K

[11] = target: T8, AE.703359 gp120D11 (HIV-1); test: ELISA
T8 construct: also called AE; 703359 gp120 WT; AE.703357 (other spelling in the text)

[12] = target: T9, AE.427299 gp120/R168K/Q169K/Y173H/A174V (HIV-1); test: ELISA
T9 construct: also called AE.427299 gp120 Mut4

[13] = target: T10, AE.703359 gp120D11/Q169K/R170Q/Q173H (HIV-1); test: ELISA
T10 construct: also called AE.703359 gp120 Mut3

[14] = target: T11, AE.703359 gp120D11/Q169K (HIV-1); test: ELISA
T11 construct: also called AE.703359 gp120 Q169K

[15] = target: J08 C.ZM109V1V2 N173D (HIV-1); test: ELISA
[16] = target: J08 A.92RW020V1V2 (HIV-1); test: ELISA
[17] = target: gp70 A.92RW020V1V2 (murine leukemia virus; HIV-1); test: ELISA
[18] = target: T12, J08 C.97ZA012V1V2 (HIV-1); test: ELISA
T12 chain: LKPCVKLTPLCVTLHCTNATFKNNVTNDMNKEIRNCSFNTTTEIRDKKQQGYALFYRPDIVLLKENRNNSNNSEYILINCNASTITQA

[19] = target: J08 C.ZM109.V1V2 (HIV-1); test: ELISA
[20] = target: T13, D.9009SA V1V2 Tags; test: ELISA, OD405 at 10 ug/ml mAb
T13 Env construct: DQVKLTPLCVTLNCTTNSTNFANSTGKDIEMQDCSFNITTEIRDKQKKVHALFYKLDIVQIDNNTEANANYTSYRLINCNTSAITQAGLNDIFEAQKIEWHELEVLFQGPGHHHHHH

[21] = target: T14, A.9004SS V1V2 Tags; test: ELISA, OD405 at 10 ug/ml mAb
T14 Env construct: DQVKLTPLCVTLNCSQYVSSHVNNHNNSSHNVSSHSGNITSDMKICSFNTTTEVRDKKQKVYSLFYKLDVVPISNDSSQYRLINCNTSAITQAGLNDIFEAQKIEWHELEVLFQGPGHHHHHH

[22] = target: T15, C.1086 gp140; test: ELISA, OD405 at 10 ug/ml mAb
T15 construct: also called C.1086gp140C

[23] = target: AE.A244 gp120 (HIV-1)
[24] = target: T16, AE.A244 gp120 (HIV-1); test: ELISA
T16 construct: also called AE.A244 gD-gp120; E.A244gDneg

[25] = target: T17, AE.A244 V1/V2 tags, natively deglycosylated (HIV-1); test: ELISA
T17 construct: also called AE.A244V1V2 tags Degly

[26] = target: T16, AE.A244 gp120; test: ELISA; remark: listed apart in the source
[27] = target: A.Q23 V1V2 tags (HIV-1); test: ELISA
[28] = target: T18, gp70 B.CaseA2 V1/V2 (HIV-1 V1V2 on murine leukemia virus gp70); test: ELISA
T18 construct: also called B.gp70CaseA2 V1/V2; gp70 B.CaseAV1V2
T18 chain: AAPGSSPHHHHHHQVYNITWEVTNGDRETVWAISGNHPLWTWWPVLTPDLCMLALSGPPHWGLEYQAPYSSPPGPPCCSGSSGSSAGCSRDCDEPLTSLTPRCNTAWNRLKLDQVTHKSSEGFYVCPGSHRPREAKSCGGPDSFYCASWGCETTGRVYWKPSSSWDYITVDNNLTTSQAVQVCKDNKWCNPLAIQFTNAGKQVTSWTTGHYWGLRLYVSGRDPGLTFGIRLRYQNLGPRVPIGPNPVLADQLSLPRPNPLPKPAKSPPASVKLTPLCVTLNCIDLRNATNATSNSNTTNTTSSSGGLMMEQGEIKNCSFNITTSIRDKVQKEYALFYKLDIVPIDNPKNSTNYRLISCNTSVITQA

[29] = target: A.Q23 V1V2 tags (HIV-1); test: ELISA; remark: listed apart in the source
[30] = target: T18, gp70 B.CaseA2 V1/V2; test: ELISA

B1: PG16 (antibody, V domains shown)
VH: QEQLVESGGGVVQPGGSLRLSCLASGFTFHKYGMHWVRQAPGKGLEWVALISDDGMRKYHSDSMWGRVTISRDNSKNTLYLQFSSLKVEDTAMFFCAREAGGPIWHDDVKYYDFNDGYYNYHYMDVWGKGTTVTVSS
VL: QSALTQPASVSGSPGQTITISCNGTSSDVGGFDSVSWYQQSPGKAPKVMVFDVSHRPSGISNRFSGSKSGNTASLTISGLHIEDEGDYFCSSLTDRSHRIFGGGTKVTVL
notes: also called mAb PG16; bnAb PG16
binding result [1]: no binding (tested: 100 ug/ml)
IC50 [2]: 10 to 100 nM
EC50 [3]: 16 nM
EC50 [4]: 15 nM
EC50 [5]: 15 nM

B2: CH59 (antibody, V domains shown)
VH: EVQLVESGGGLVQPGRSLRLSCAASGFTFDDGAMHWVRQAPGKGLEWVSGISWNSNIIAYADSVKGRFTISRDNAKNSLYLEMNSLRVEDTALYYCAKDSPRGELPLNYWGQGTLVTVSS
VL: SYELTQPPSVSVSPGQTARITCSGDALPKNYAYWYQQKSGQAPVLVIYEDSKRPSGIPERFSGSSSGTMATLTISGAQVEDEADYYCYSTDSSGNHRVFGGGTKLTVL
notes: also called mAb CH59
binding result [1]: binds
binding result [6]: no binding
binding result [7]: no binding
EC50 [8]: 0.58 µg/mL
EC50 [9]: 0.029 µg/mL
binding result [10]: no binding
binding result [11]: no binding
EC50 [12]: 0.03 µg/mL
EC50 [13]: 0.05 µg/mL
EC50 [14]: 1.2 µg/mL
EC50 [15]: 22 nM
EC50 [16]: 377 nM
EC50 [17]: 235 nM
EC50 [18]: 107 nM
EC50 [19]: 1.16 nM
binding result [20]: binds
binding result [21]: binds
binding result [22]: binds
IC50 [2]: < 10 nM
IC50 [23]: < 10 nM
EC50 [3]: > 667 nM
EC50 [4]: 0.04 nM
EC50 [24]: 0.03 nM
EC50 [25]: 0.0015 nM
EC50 [5]: 0.04 nM
EC50 [26]: 0.03 nM

B3: 697D (antibody, V domains shown)
VH: QVQLVQSGAEVKKPGSSVKVSCKASGGNFNTYTISWVRQAPGQGLEWMGRIIPIFGIVNPAQKFPGRVTINVDKSTNTAYMELSSLRSEDTAVYYCATSGVGLHFGYFDYWGQGTQVTVSS
VL: QSVLTQPPSVSGAPGQRVTISCTGSSSNIGAHYDVHWYQQLPGTAPKLLIYGNSNRPSGVPDRFSGSKSGTSASLAITGLQAEDEADYYCQSYDSSLSGYVFGTGTKVTVL
notes: also called mAb 697D; V2 conformational mAb 697D
EC50 [6]: 0.07 µg/mL
EC50 [7]: 0.08 µg/mL
EC50 [8]: 0.06 µg/mL
EC50 [9]: 0.1 µg/mL
EC50 [10]: 0.13 µg/mL
EC50 [11]: 0.21 µg/mL
binding result [12]: no binding
EC50 [13]: 0.12 µg/mL
EC50 [14]: 0.51 µg/mL
EC50 [15]: 0.41 nM
EC50 [16]: 0.07 nM
EC50 [17]: 14 nM
EC50 [18]: 0.06 nM
EC50 [19]: 3 nM
IC50 [23]: < 10 nM
EC50 [27]: > 66.7 nM
EC50 [28]: 0.33 nM
EC50 [29]: > 66.7 nM
EC50 [30]: 0.08 nM
EC50 [3]: 0.1 nM
EC50 [24]: 0.8 nM
EC50 [25]: 3.6 nM
EC50 [26]: 0.8 nM

B4: 697D reverted unmutated ancestor antibody (antibody, V domains shown)
VH: QVQLVQSGAEVKKPGSSVKVSCKASGGTFSSYTISWVRQAPGQGLEWMGRIIPILGIANYAQKFQGRVTITADKSTSTAYMELSSLRSEDTAVYYCATSGVGLHFGYFDYWGQGTLVTVSS
VL: QSVLTQPPSVSGAPGQRVTISCTGSSSNIGAGYDVHWYQQLPGTAPKLLIYGNSNRPSGVPDRFSGSKSGTSASLAITGLQAEDEADYYCQSYDSSLSGYVFGTGTKVTVL
notes: also called 697D RUA
EC50 [27]: > 667 nM
EC50 [28]: > 667 nM
EC50 [29]: > 667 nM
EC50 [30]: > 667 nM
